Data set [1] relates to [Ser^46] PKN (39-53) peptide.
Data set [2] addresses [γ-32P]GTP·GST-RhoA (human) (UniProt P61586). Nature of the data set: cell-based or functional assay.

Chain of [γ-32P]GTP·GST-RhoA (human) (P61586 whole entry): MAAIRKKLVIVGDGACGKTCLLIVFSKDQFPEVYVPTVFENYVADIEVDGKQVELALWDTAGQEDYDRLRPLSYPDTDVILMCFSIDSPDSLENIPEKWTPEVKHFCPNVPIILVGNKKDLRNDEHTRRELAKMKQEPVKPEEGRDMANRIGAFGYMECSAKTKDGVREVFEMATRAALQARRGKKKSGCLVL

In the case of PKN purified from rat testis cytosol, in data set [1], the “Km (phosphorylation of the peptide by PKN)” value is reported as “a Km of approximately 25 µM”.
Regarding “GST-PKN (N-terminal region of human PKN, amino acid sequence 1-538, fused to GST) (from UniProt Q16512 1-538)”, the half life of GTP bound to RhoA (endogenous GTPase activity) in data set [2] is > 15 min.

These data come from patent US6660837.
